Laboratory results published in the supplement of paper PMC9170038.

Test system: MS2 coat protein
Assay: apparent KD of MS2 coat protein; designed switch direction (-1 OFF switch, 1 ON switch): -1; higher = weaker reporter binding
Procedure, shortened: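 Designed RNA switches with common flanks were transcribed on Illumina chips by stalled E. coli RNA polymerase and titrated with SNAP-549-labelled MS2 coat protein, from 0.7 or 1.5 nM doubling to 3 µM, in Tris-HCl pH 7.5 buffer with KCl, MgCl2, BSA, DTT, tRNA and Tween-20. Steps lasted 0.8–1.5 h (lowest) to 10–20 min (highest). Titrations ran without input, with 200 uM small-molecule ligand, or with an oligonucleotide input. Normalised cluster fluorescence was curve-fitted, and apparent KD is the per-design median over clusters.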

[1] = Eterna round: R95, input ligand: FMN 200 uM
[2] = Eterna round: R95, input ligand: microRNA oligo, concentration not stated
[3] = Eterna round: R95, input ligand: none
[4] = input ligand: microRNA oligo, concentration not stated

Sequence	apparent KD of MS2 coat protein [1]	apparent KD of MS2 coat protein [2]	apparent KD of MS2 coat protein [3]	apparent KD of MS2 coat protein (input ligand: FMN 200 uM)	apparent KD of MS2 coat protein (input ligand: none)	apparent KD of MS2 coat protein [4]
UUUUAACAUGAGGAUCACCCAUGUCAGGAUAUGGUUUUUUUUUUUUUUUUUUUUUUUUCCAGAAGGGACAUUUU [My solution] (puzzle: Exclusion 1)	0.0425 µM	0.00577 µM	0.00388 µM			
AGUACUAACACGAAAGUGUUAGUCCAAUAAGCUUGUGAAACAUGAGGAUCACCCAUGUCCUCAUAAGCUCGUCUUAU [salish99_TOv2_r3_038] (puzzle: Sensor v3, turn-off variant 2)	0.0174 µM	0.454 µM				
CAUACACAUGAGGAUCACCCAUGUGAGGAUAUGCGUACGUUGUCCGUAGGCGACGUGCGCAGAAGGCGCGUGUU [JL-ex1-3.15 Eli mod] (puzzle: Exclusion 1)		0.0425 µM				
AACCUGUCAGGAUAUCAAUUCUGUGCGUGACUACAGGACGCUGAGAAGGGACAUGAGGAUCACCCAUGUUGACU [Eternabot (Original) Solution 33] (Eterna round: R97, puzzle: Exclusion 4)				0.0247 µM	0.0268 µM	
UCUAGUUGGCAAGGAUAUCCUACAUUGUUCUGGCCCGGGCAUGCUACAUGAGGAUCACCCAUGUGGGAGAAGGUGCGUCAUUGC [Design 22] (Eterna round: R96, puzzle: Exclusion NG 2)				0.0709 µM	0.0821 µM	0.0505 µM
UUCCUACAUGAGGAUCACCCAUGUGAGGAUAUGCAUCGUAUUAUUCUCGUAUGUAGUAGCAGAAGGCGCAUUGG [Starry Exclusion 1.1] (puzzle: Exclusion 1)	0.121 µM	0.0369 µM	0.0312 µM			
UCUGUACAUCCCAAGCAUAACAUGAGGAUCACCCAUGUUGAACAAAACGUCGGUCCUGCUGCUCGUCGAAGGAAUAG [Eternabot (Original) Solution 8] (Eterna round: R97, puzzle: Sensor, turn-off variant 1)				0.0474 µM	0.0475 µM	
AGUACUUACACGAAAGUGUUAGUACAAUAAGCUUGUGAAACAUGAGGAUCACCCAUGUCCUCAUAAGCUCGUCUUAU [salish99_TOv2_r3_016] (puzzle: Sensor v3, turn-off variant 2)	0.0186 µM	0.615 µM	0.0171 µM			
AAAAAAAGACAAGAGGAGAUUCGUCUUAAAAAUCCUCAAACAUGAGGAUCACCCAUGUAAAAUGAUCGAAAGAUCAA [Mat - Sensor v2 - ver2 - JL mod - D39] (Eterna round: R96, puzzle: Sensor v2, turn-off variant 2)				0.0257 µM	0.0292 µM	0.024 µM
CAUAGCCGUGUAAGGAUAUCCGAUCCACGGGACAAGGAGAAGGUACAUGAGGAUCACCCAUGUAAGGGUUCCUA [Vecequve] (Eterna round: R97, puzzle: Brourd's mod of Exclusion 4)				0.0229 µM	0.0217 µM	
UCGGCGCGAGGAUAUGCGGCUGGUGCUUCGGGCCCUCGCGUACAUGAGGAUCACCCAUGUAGAAGGCGCGCCGC [Apr-15 SS2-43] (puzzle: Exclusion 2)		0.0205 µM				
AAGUACCGUCACGAUAGUGAUGGUACAGCAAGUAGUGAAACAUGAGGAUCACCCAUGUCCUCAAUUGCUCGUCUUAU [Sensor 3 - 82] (puzzle: Sensor v3, turn-off variant 2)	0.11 µM	0.171 µM	0.115 µM			
UAUAAAGGCUCAGGAUAUGGUGCGUCACAUGAGGAUCACCCAUGUAACGUGGCGGAACCUGCGCGCUAGAAGGGAGUAGCGAAA [Laensoqu] (Eterna round: R96, puzzle: Exclusion NG 2)				0.00844 µM	0.0107 µM	0.00805 µM
UGUUGUUACGUAGGAUAUGAGGAUCACCCAUAGAAGGAUAUCGAAAGAGAAGGUCUGAGGAUUACCCAGAAGGACGGGUUAACA [pwkr exNG2 2xF5 2xFMN.4] (Eterna round: R96, puzzle: Exclusion NG 2)				1.34 µM	0.139 µM	0.131 µM
GCCAGAGCAGGAUAUUCAAAACCUCACAUGAGGAUCACCCAUGUGGCCGAAAGGCCGGGAGGAGAAGGGCUCUGGC [Fiskers Ex 5 - 1] (puzzle: Exclusion 5)	0.0498 µM	0.0133 µM	0.0158 µM			
ACACUGCUAGGAUAUGCAGCGGCAUCAGCCGAAAGUCCCUCACAUGAGGAUCACCCAUGUAGAAGGAGCAAGAC [Eternabot (Original) Solution 13] (Eterna round: R97, puzzle: Exclusion 2)				0.0269 µM	0.0266 µM	
UAUAUAUAGUAAGGAUAUGUAUUAAUGUUAUAAACAGAAGGUACUGACAUGAGGAUCACCCAUGUUUUAGUGUGGGCAUGUAGA [JMF's solution 78] (Eterna round: R96, puzzle: Exclusion NG 1)						0.0738 µM

Sequence	apparent KD of MS2 coat protein [1]	apparent KD of MS2 coat protein [2]	apparent KD of MS2 coat protein [3]	apparent KD of MS2 coat protein (input ligand: FMN 200 uM)	apparent KD of MS2 coat protein (input ligand: none)	apparent KD of MS2 coat protein [4]
GCUUGUAGAGGAUAUACGAGGGCCCGAGCGGAUAACACCGCACAUGAGGAUCACCCAUGUAGAAGGCUACUACC [JL-ex2-4.17 ViennaUCT mod] (Eterna round: R97, puzzle: Exclusion 2)				0.495 µM	0.0923 µM	
AGUGUGUGGCAGGAUAUGCGAUUUGUAAGUAUUGCAGAAGGGUCUACAUGAGGAUCACCCAUGUGUGCGGUUGA [Ex6 #25] (Eterna round: R97, puzzle: Exclusion 6)				0.947 µM	0.469 µM	
UAGUAUAUCUAUGGGAGUAACAUGAGGAUCACCCAUGUAUGUCUUGUUUUUUGUUCGUCAUAGGCCGGUUGAACGGU [JR_SV3TOV1_Sub027] (puzzle: Sensor v3, turn-off variant 1)	0.0233 µM	0.0277 µM	0.0265 µM			
AGUACUAUCACGAAAGUGAUAGUACAAUAAGCUAGUGAAACAUGAGGAUCACCCAUGUCCUCAUUAGCUCGUCUUAU [JL turnoff v2 78] (Eterna round: R96, puzzle: Sensor v2, turn-off variant 2)				0.014 µM	0.0164 µM	0.258 µM
AGCCAAGCAGGAUAUGCCCGGGAUAACAUGAGGAUCACCCAUGUGACCGAUUGAUGUCCUGCAGAAGGGCUUGGGA [Mod of ViennaUCT - Jieux - Exclusion 5] (Eterna round: R97, puzzle: Exclusion 5)				0.0832 µM	0.0179 µM	
CACACACAUGAGGAUCACCCAUGUCAGGAUAUCGACACACACCCACACAAACAAACCACGAGAAGGGACGGCCA [E4 1] (Eterna round: R97, puzzle: Exclusion 1)				0.037 µM	0.0486 µM	
AGUUGGCGAGGAUAUACAUGAGGAUCACCCAUGUGAAAUUAAAGUGAGUAAAUGAAAAGUAGAAGGCGCUGACA [Mod of Mat 21 - Jieux - Exclusion 3] (Eterna round: R97, puzzle: Exclusion 3)				0.259 µM	0.0403 µM	
GAUUAUGCGAGCUUUAGGGACAUGAGGAUCACCCAUGUUCGUCUUAUUAAUCUGGGUACACUGACAUACCUAAAUCU [JMF 69] (puzzle: Sensor v3, turn-off variant 1)	0.0321 µM	0.0484 µM	0.0339 µM			
UUCACAUGGACAUGAGAUCACAUGAGGAUCACCCAUGUGAAUAACAAGCUUUUUGCUCGUCUUAUGUCCAAUAAUAA [Stov1/14-C1] (Eterna round: R97, puzzle: Sensor, turn-off variant 1)				0.014 µM	0.0128 µM	
AGCUAGAUAGGAUAUGCCCGGGAUAACAUGAGGAUCACCCAUGUGACCGAAUCAUGUCCAGCAGAAGGGUUUGGGA [Mod of ViennaUCT 9 - Jieux - Exclusion 5] (Eterna round: R97, puzzle: Exclusion 5)				0.0347 µM	0.0233 µM	
CCUAUGUGAGGAUAUCACUGGUCUUUUCAUUAGAUGAUCAGUGAGAAGGCACAUGAGGAUCACCCAUGUCAGUG [Ex4 - 3 - 53] (Eterna round: R96, puzzle: Exclusion 4)				0.048 µM	0.11 µM	0.0597 µM
GGUUGGCGAGGAUAUACAUGAGGAUCACCCAUGUGAGAAAGAAAAGUGAGGAAGAAAAGUAGAAGGCGCUGACG [Mat - Exclusion 3 - Mod of Salish D2] (puzzle: Exclusion 3)	0.583 µM	0.0534 µM	0.0998 µM			
AAUAACAGAGGAUAUACUAUUUUAUGUGUUUAUUGUUUUGAACAUGAGGAUCACCCAUGUAGAAGGCUGAAUGA [JMF 67] (puzzle: Exclusion 2)		0.0258 µM				
AAAAUACGCACAGGAUAUCGAUACAUGAGGAUCACCCAUGUAACAUGGACUGGUCAGCAGAAAAGCGAGAAGGGUGCUGACGAC [Lediaroren] (Eterna round: R96, puzzle: Exclusion NG 2)				0.334 µM	0.0556 µM	0.0903 µM
AAAACUGCCUAGGAUAUCUGAAGCCGAGGUAGAAGAGAAGGAGGCACAUGAGGAUCACCCAUGUCCCUCAUAAA [EX6 A.8] (Eterna round: R97, puzzle: Exclusion 6)				0.0168 µM	0.0143 µM	
AGCUGUGGCCGAGGAUAUCUAACAAUCCUAACCGAAAUAUAAUCGGACAUGAGGAUCACCCAUGUAGAGAAGGCGGUCUCAGCA [Eli eng2 - 074] (Eterna round: R96, puzzle: Exclusion NG 2)						0.0681 µM
